Measurements reported in paper PMC12520357 (2025).

T1: 14-3-3 proteins, P29311
T1 chain: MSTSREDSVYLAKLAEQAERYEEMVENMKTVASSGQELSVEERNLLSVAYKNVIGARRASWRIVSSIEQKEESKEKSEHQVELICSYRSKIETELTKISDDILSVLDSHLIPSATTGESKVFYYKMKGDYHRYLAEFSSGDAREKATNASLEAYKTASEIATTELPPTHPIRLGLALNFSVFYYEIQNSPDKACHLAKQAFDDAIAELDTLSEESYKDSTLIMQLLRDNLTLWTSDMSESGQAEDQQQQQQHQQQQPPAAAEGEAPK


Biological target: T1, 14-3-3 proteins, P29311
Test: co-immunoprecipitation (anti-FLAG IP, immunoblot quantification)
Conditions: chain shown with the change; n = 3; reg1Δ Snf1-GFP Glc7-GFP cells; parent: est. 1.0; read off a plot

Binder	ratio to parent
Reg1-FLAG (wild type), Q00816 N624S (protein) MSTNLANYFAGKKDIENEHVNRNASHESNSKSDVKISGNDNDNDEDMGPSVSMAVQAKNDDDFHKSTFNLKRTRSMGLLDEYIDPTKKLLGRSDDLYDNDNEYYDNSSNNSSSNSSDDDYDDGYQEHSTSVSPPPADNDSYLIPQDDNDVVVEPERHVDYLSHEWKESEISNSWKYIILKKKKRDVDLVNAARLENASWRTWAKARNNLKTVSPEVVNWSKDSDVTWLYGPIVRDSEGNAQSEEEHDLERGYGSDDENSKRISMPTKNSKSIAAAPKPILKKRTVTEIIEDNALWKLNEARKHMTEMKHASVIMDPNGNKNVHDDFDALAAQVNAQYYHYPKESNSSVSLKSQHSDKKDNSTIPNPVGENSNGGGDKGEEDLHLKSALHVQNNRSTAQSNKSILENSTNDRKANLDQNLNSPDNNRFPSSTSSSNRDNENNSMGLSSILTSNPSEKSNKPTKNRHIHFNDRVEQCMALRYPASQSEDDESDDENKQYVDVNNNANVTTINNNRTPLLAIQHKSIPINSATEHLNKNTSDDDTSSQSSSSSHSDDEEHGGLYINARFSRRSDSGVHSPITDNSSVASSTTSRAHVRPIIKLLPDTTLNYGSDEESDNGEFNGYGSAVSHNVNTSRGYDYIYDYNSVYTGDTSSFLPVDSCDIVDVPEGMDLQTAIADDNASNYEFNNAVESKEKHVPQLHKASANNTTRQHGSHMLLYDDDNYSSSSDSEQQFIEDSQYNSSDDEEEEDDDDQEVDDNHDEGLSLRRTLSLGKSGSTNSLYDLAQPSLSSATPQQKNPTNFTGGKTDVDKDAQLAVRPYPLKRNSSSGNFIFNSDSEEESSSEEEQRPLPANSQLVNRSVLKGSVTPANISSQKKKALPKQPKASDSSQSFRIVNNTPSPAEVGASDVAIEGYFSPRNESIKSVVSGGNMMDHQDHSEMDTLAKGFENCHINNASKLKDKKVDSVQTTRKEASLTDSSNESLHKVVQNARGMASKYLHSWKKSDVKPQENGNDSS	1.4
Reg1-FLAG (wild type), Q00816 A54T (protein) MSTNLANYFAGKKDIENEHVNRNASHESNSKSDVKISGNDNDNDEDMGPSVSMTVQAKNDDDFHKSTFNLKRTRSMGLLDEYIDPTKKLLGRSDDLYDNDNEYYDNSSNNSSSNSSDDDYDDGYQEHSTSVSPPPADNDSYLIPQDDNDVVVEPERHVDYLSHEWKESEISNSWKYIILKKKKRDVDLVNAARLENASWRTWAKARNNLKTVSPEVVNWSKDSDVTWLYGPIVRDSEGNAQSEEEHDLERGYGSDDENSKRISMPTKNSKSIAAAPKPILKKRTVTEIIEDNALWKLNEARKHMTEMKHASVIMDPNGNKNVHDDFDALAAQVNAQYYHYPKESNSSVSLKSQHSDKKDNSTIPNPVGENSNGGGDKGEEDLHLKSALHVQNNRSTAQSNKSILENSTNDRKANLDQNLNSPDNNRFPSSTSSSNRDNENNSMGLSSILTSNPSEKSNKPTKNRHIHFNDRVEQCMALRYPASQSEDDESDDENKQYVDVNNNANVTTINNNRTPLLAIQHKSIPINSATEHLNKNTSDDDTSSQSSSSSHSDDEEHGGLYINARFSRRSDSGVHSPITDNSSVASSTTSRAHVRPIIKLLPDTTLNYGSDEESDNGEFNGYGNAVSHNVNTSRGYDYIYDYNSVYTGDTSSFLPVDSCDIVDVPEGMDLQTAIADDNASNYEFNNAVESKEKHVPQLHKASANNTTRQHGSHMLLYDDDNYSSSSDSEQQFIEDSQYNSSDDEEEEDDDDQEVDDNHDEGLSLRRTLSLGKSGSTNSLYDLAQPSLSSATPQQKNPTNFTGGKTDVDKDAQLAVRPYPLKRNSSSGNFIFNSDSEEESSSEEEQRPLPANSQLVNRSVLKGSVTPANISSQKKKALPKQPKASDSSQSFRIVNNTPSPAEVGASDVAIEGYFSPRNESIKSVVSGGNMMDHQDHSEMDTLAKGFENCHINNASKLKDKKVDSVQTTRKEASLTDSSNESLHKVVQNARGMASKYLHSWKKSDVKPQENGNDSS	1.2

Results, then the binder that gave them:

ratio to parent	Binder
1.2	Reg1-FLAG (wild type), Q00816 P278Q (protein) MSTNLANYFAGKKDIENEHVNRNASHESNSKSDVKISGNDNDNDEDMGPSVSMAVQAKNDDDFHKSTFNLKRTRSMGLLDEYIDPTKKLLGRSDDLYDNDNEYYDNSSNNSSSNSSDDDYDDGYQEHSTSVSPPPADNDSYLIPQDDNDVVVEPERHVDYLSHEWKESEISNSWKYIILKKKKRDVDLVNAARLENASWRTWAKARNNLKTVSPEVVNWSKDSDVTWLYGPIVRDSEGNAQSEEEHDLERGYGSDDENSKRISMPTKNSKSIAAAPKQILKKRTVTEIIEDNALWKLNEARKHMTEMKHASVIMDPNGNKNVHDDFDALAAQVNAQYYHYPKESNSSVSLKSQHSDKKDNSTIPNPVGENSNGGGDKGEEDLHLKSALHVQNNRSTAQSNKSILENSTNDRKANLDQNLNSPDNNRFPSSTSSSNRDNENNSMGLSSILTSNPSEKSNKPTKNRHIHFNDRVEQCMALRYPASQSEDDESDDENKQYVDVNNNANVTTINNNRTPLLAIQHKSIPINSATEHLNKNTSDDDTSSQSSSSSHSDDEEHGGLYINARFSRRSDSGVHSPITDNSSVASSTTSRAHVRPIIKLLPDTTLNYGSDEESDNGEFNGYGNAVSHNVNTSRGYDYIYDYNSVYTGDTSSFLPVDSCDIVDVPEGMDLQTAIADDNASNYEFNNAVESKEKHVPQLHKASANNTTRQHGSHMLLYDDDNYSSSSDSEQQFIEDSQYNSSDDEEEEDDDDQEVDDNHDEGLSLRRTLSLGKSGSTNSLYDLAQPSLSSATPQQKNPTNFTGGKTDVDKDAQLAVRPYPLKRNSSSGNFIFNSDSEEESSSEEEQRPLPANSQLVNRSVLKGSVTPANISSQKKKALPKQPKASDSSQSFRIVNNTPSPAEVGASDVAIEGYFSPRNESIKSVVSGGNMMDHQDHSEMDTLAKGFENCHINNASKLKDKKVDSVQTTRKEASLTDSSNESLHKVVQNARGMASKYLHSWKKSDVKPQENGNDSS
1.1	Reg1-FLAG (wild type), Q00816 W165G (protein) MSTNLANYFAGKKDIENEHVNRNASHESNSKSDVKISGNDNDNDEDMGPSVSMAVQAKNDDDFHKSTFNLKRTRSMGLLDEYIDPTKKLLGRSDDLYDNDNEYYDNSSNNSSSNSSDDDYDDGYQEHSTSVSPPPADNDSYLIPQDDNDVVVEPERHVDYLSHEGKESEISNSWKYIILKKKKRDVDLVNAARLENASWRTWAKARNNLKTVSPEVVNWSKDSDVTWLYGPIVRDSEGNAQSEEEHDLERGYGSDDENSKRISMPTKNSKSIAAAPKPILKKRTVTEIIEDNALWKLNEARKHMTEMKHASVIMDPNGNKNVHDDFDALAAQVNAQYYHYPKESNSSVSLKSQHSDKKDNSTIPNPVGENSNGGGDKGEEDLHLKSALHVQNNRSTAQSNKSILENSTNDRKANLDQNLNSPDNNRFPSSTSSSNRDNENNSMGLSSILTSNPSEKSNKPTKNRHIHFNDRVEQCMALRYPASQSEDDESDDENKQYVDVNNNANVTTINNNRTPLLAIQHKSIPINSATEHLNKNTSDDDTSSQSSSSSHSDDEEHGGLYINARFSRRSDSGVHSPITDNSSVASSTTSRAHVRPIIKLLPDTTLNYGSDEESDNGEFNGYGNAVSHNVNTSRGYDYIYDYNSVYTGDTSSFLPVDSCDIVDVPEGMDLQTAIADDNASNYEFNNAVESKEKHVPQLHKASANNTTRQHGSHMLLYDDDNYSSSSDSEQQFIEDSQYNSSDDEEEEDDDDQEVDDNHDEGLSLRRTLSLGKSGSTNSLYDLAQPSLSSATPQQKNPTNFTGGKTDVDKDAQLAVRPYPLKRNSSSGNFIFNSDSEEESSSEEEQRPLPANSQLVNRSVLKGSVTPANISSQKKKALPKQPKASDSSQSFRIVNNTPSPAEVGASDVAIEGYFSPRNESIKSVVSGGNMMDHQDHSEMDTLAKGFENCHINNASKLKDKKVDSVQTTRKEASLTDSSNESLHKVVQNARGMASKYLHSWKKSDVKPQENGNDSS
1.2	Reg1-FLAG (wild type), Q00816 P231S (protein) MSTNLANYFAGKKDIENEHVNRNASHESNSKSDVKISGNDNDNDEDMGPSVSMAVQAKNDDDFHKSTFNLKRTRSMGLLDEYIDPTKKLLGRSDDLYDNDNEYYDNSSNNSSSNSSDDDYDDGYQEHSTSVSPPPADNDSYLIPQDDNDVVVEPERHVDYLSHEWKESEISNSWKYIILKKKKRDVDLVNAARLENASWRTWAKARNNLKTVSPEVVNWSKDSDVTWLYGSIVRDSEGNAQSEEEHDLERGYGSDDENSKRISMPTKNSKSIAAAPKPILKKRTVTEIIEDNALWKLNEARKHMTEMKHASVIMDPNGNKNVHDDFDALAAQVNAQYYHYPKESNSSVSLKSQHSDKKDNSTIPNPVGENSNGGGDKGEEDLHLKSALHVQNNRSTAQSNKSILENSTNDRKANLDQNLNSPDNNRFPSSTSSSNRDNENNSMGLSSILTSNPSEKSNKPTKNRHIHFNDRVEQCMALRYPASQSEDDESDDENKQYVDVNNNANVTTINNNRTPLLAIQHKSIPINSATEHLNKNTSDDDTSSQSSSSSHSDDEEHGGLYINARFSRRSDSGVHSPITDNSSVASSTTSRAHVRPIIKLLPDTTLNYGSDEESDNGEFNGYGNAVSHNVNTSRGYDYIYDYNSVYTGDTSSFLPVDSCDIVDVPEGMDLQTAIADDNASNYEFNNAVESKEKHVPQLHKASANNTTRQHGSHMLLYDDDNYSSSSDSEQQFIEDSQYNSSDDEEEEDDDDQEVDDNHDEGLSLRRTLSLGKSGSTNSLYDLAQPSLSSATPQQKNPTNFTGGKTDVDKDAQLAVRPYPLKRNSSSGNFIFNSDSEEESSSEEEQRPLPANSQLVNRSVLKGSVTPANISSQKKKALPKQPKASDSSQSFRIVNNTPSPAEVGASDVAIEGYFSPRNESIKSVVSGGNMMDHQDHSEMDTLAKGFENCHINNASKLKDKKVDSVQTTRKEASLTDSSNESLHKVVQNARGMASKYLHSWKKSDVKPQENGNDSS
